Reference: the Human Domainome abundance scans (Beltran et al. 2025)

B1: Activity-dependent neuroprotector homeobox protein, residues 770 to 810; numbered along this chain, Q9H2P0 (parent)
chain: FLTKYFNKQPYPTRREIEKLAASLWLWKSDIASHFSNKRKK

Variants of: B1
Assay: abundance fitness (aPCA) (normalised: wild type 0, dead -1); higher = more abundant; growth selection in yeast, the domain comes from the species named
Settings: Homo sapiens

Abundance fitness: each site, then its substitutions
T13: F 0.044; K -0.046; V 0.088; I 0.101; E -0.369; M 0.28; H -0.135; A 0.016; Q -0.098; W 0.221; R -0.048; Y 0.083; S -0.079; D -0.26; L 0.132; G 0.16
K4: G -1.07; P -0.904; V -0.815; Q -0.646; D -0.644; T -0.877; N -0.419; L -1; C -0.698; S -0.749; A -0.735; R -0.549
E16: F 0.304; T -0.065; I 0.009; L -0.194; C 0.082; K 0.095; P 0.159; V -0.168; D 0.016; S -0.036; M -0.04; H -0.133; A -0.14; R 0.054; W 0.173
F6: K -0.098; P -0.942; V -0.369; E -0.821; M -0.209; I -0.237; D -0.837; Y -0.295; H -0.794; T -0.328; G -0.442; R -0.163; S -0.76; L -0.157; A -0.235; C -0.223
T3: F -0.613; I -0.475; C -0.536; W -0.786; N 0.167; K 0.262; E -0.059; L -0.759; A -0.303; S 0.001; G -0.132; M -0.395; P -0.935; H -0.325; Y -0.619; V -0.544; Q -0.164; D -0.291
N7: T -0.215; P 0.017; W -0.958; I -1.17; Y -0.712; C -0.455; V -0.841; M -0.76; A -0.145; S -0.107; R -0.174; G -0.365; E -0.058; F -1.24
R14: A -0.595; H -0.514; M -0.028; Y -0.13; L -0.14; W -0.262; V -0.388; D -0.826; P -0.391; F -0.392; K -0.048; S -0.387; Q -0.265
P12: V -0.584; Q -0.036; K 0.062; A 0.048; L -0.22; D 0.092; T -0.142; M -0.114; R -0.128; F -0.402; E 0.059; G 0.099; W -0.235; S -0.102
L2: R -0.789; W 0.044; N -0.555; A -0.753; S -0.88; H -0.738; P -0.532; C -0.571; V -0.369; G -0.812; Y -0.248; K -0.622; D -0.822; T -0.661; E -1.06; Q -0.595; F 0.098
K8: T -0.951; I -1.43; V -1.15; D -0.325; A -1.12; Q -0.858; P -1.11; E -0.634; N -0.362; R -0.22; Y -0.554; G -0.217; L -1.02; F -1.13; M -0.639; W -0.942; H -1.09; S -0.995; C -1.11
P10: A -0.095; K -0.139; N 0.09; V 0.062; H -0.153; E 0.158; L -0.15; S 0.06; T 0.011; I -0.114; G -0.129; W 0.059; C 0.011
